According to the supplement of paper PMC9112550, “Optimization of the antimicrobial peptide Bac7 by deep mutational scanning” (BMC Biology, 2022):

tested on: Escherichia coli TOP10; assay: shrunken log2 fold change of peptide-encoding DNA abundance (4.5 h post-induction vs induction); higher = less antimicrobial activity (less host growth inhibition); conditions: time post-induction: 4.5 h; library: site-saturation at positions 5, 18, 19, 20
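Further: peptides expressed intracellularly from a pBAD plasmid library in pooled LB shake-flask culture, induced with 0.3% L-arabinose, DNA abundance read by NGS, three biological replicates, DESeq2 with apeglm shrinkage.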

Row | Sequence | shrunken log2 fold change
1 | RRIRIRPPRLPRPRPRPTLMPRP | -0.0204
2 | RRIRQRPPRLPRPRPRPFFTPRP | -0.343
3 | RRIRTRPPRLPRPRPRPAMHPRP | 0.289
4 | RRIRNRPPRLPRPRPRPGMDPRP | -0.0895
5 | RRIRPRPPRLPRPRPRPHMDPRP | -0.374
6 | RRIRTRPPRLPRPRPRPRKEPRP | 0.102
7 | RRIRSRPPRLPRPRPRPHNFPRP | -0.49
8 | RRIRQRPPRLPRPRPRPGKQPRP | -0.117
9 | RRIRGRPPRLPRPRPRPYEMPRP | 0.0132
10 | RRIRFRPPRLPRPRPRPPCGPRP | 0.362
11 | RRIRKRPPRLPRPRPRPYLCPRP | -0.0593
12 | RRIRVRPPRLPRPRPRPHLPPRP | -0.0222
13 | RRIRFRPPRLPRPRPRPMNTPRP | 0.0693
14 | RRIRKRPPRLPRPRPRPFICPRP | 0.0135
15 | RRIRQRPPRLPRPRPRPDPCPRP | -0.243
16 | RRIRGRPPRLPRPRPRPGQNPRP | 0.0139
17 | RRIRKRPPRLPRPRPRPLGIPRP | 4.29
18 | RRIRDRPPRLPRPRPRPIRYPRP | -0.103
19 | RRIRGRPPRLPRPRPRPVCIPRP | 0.344
20 | RRIRERPPRLPRPRPRPAKQPRP | 0.00996
21 | RRIRDRPPRLPRPRPRPRWAPRP | 0.0236
22 | RRIRYRPPRLPRPRPRPLYCPRP | -0.975
23 | RRIRQRPPRLPRPRPRPAKWPRP | -0.0192
24 | RRIRKRPPRLPRPRPRPLTPPRP | 0.658
25 | RRIRDRPPRLPRPRPRPPADPRP | 0.594

Row | Sequence | shrunken log2 fold change
26 | RRIRYRPPRLPRPRPRPHTPPRP | -0.346
27 | RRIRHRPPRLPRPRPRPAIDPRP | 0.178
28 | RRIRIRPPRLPRPRPRPWDVPRP | -0.468
29 | RRIRLRPPRLPRPRPRPEQPPRP | 0.437
30 | RRIRPRPPRLPRPRPRPHSAPRP | 0.31
31 | RRIRNRPPRLPRPRPRPVWTPRP | -0.118
32 | RRIRDRPPRLPRPRPRPHFSPRP | -0.0977
33 | RRIRIRPPRLPRPRPRPGGYPRP | -0.16
34 | RRIRIRPPRLPRPRPRPRIQPRP | -0.275
35 | RRIRPRPPRLPRPRPRPRYMPRP | -0.213
36 | RRIRERPPRLPRPRPRPREDPRP | -0.0632
37 | RRIRPRPPRLPRPRPRPVYSPRP | -0.297
38 | RRIRMRPPRLPRPRPRPYHRPRP | -0.141
39 | RRIRDRPPRLPRPRPRPFVCPRP | -0.213
40 | RRIRDRPPRLPRPRPRPDSVPRP | -0.0148
41 | RRIRCRPPRLPRPRPRPKLYPRP | -0.38
42 | RRIRGRPPRLPRPRPRPKHQPRP | 0.441
43 | RRIRERPPRLPRPRPRPQISPRP | -0.0116
44 | RRIRQRPPRLPRPRPRPDGHPRP | -0.0936
45 | RRIRFRPPRLPRPRPRPGPQPRP | 0.447
46 | RRIRLRPPRLPRPRPRPYAYPRP | -0.0124
47 | RRIRYRPPRLPRPRPRPKNTPRP | -0.579
48 | RRIRRRPPRLPRPRPRPPFIPRP | 0.299
49 | RRIRLRPPRLPRPRPRPYIIPRP | -0.217
50 | RRIRIRPPRLPRPRPRPPNSPRP | 0.0359

Row | Sequence | shrunken log2 fold change
51 | RRIRVRPPRLPRPRPRPGKWPRP | -0.141
52 | RRIRCRPPRLPRPRPRPFGCPRP | -0.308
53 | RRIRQRPPRLPRPRPRPCFYPRP | -0.269
54 | RRIRKRPPRLPRPRPRPCENPRP | 0.0184
55 | RRIRSRPPRLPRPRPRPMREPRP | 0.142
56 | RRIRKRPPRLPRPRPRPLVSPRP | 0.0109
57 | RRIRCRPPRLPRPRPRPPCQPRP | 0.0248
58 | RRIRIRPPRLPRPRPRPEATPRP | 0.511
59 | RRIRVRPPRLPRPRPRPDVSPRP | -0.0827
60 | RRIRCRPPRLPRPRPRPCQLPRP | -0.171
61 | RRIRHRPPRLPRPRPRPPWRPRP | 0.538
62 | RRIRGRPPRLPRPRPRPKSGPRP | 0.707
63 | RRIRSRPPRLPRPRPRPITSPRP | -0.0517
64 | RRIRIRPPRLPRPRPRPSNWPRP | -0.257
65 | RRIRLRPPRLPRPRPRPTRAPRP | 0.498
66 | RRIRARPPRLPRPRPRPYYDPRP | -0.215
67 | RRIRWRPPRLPRPRPRPPEMPRP | 0.812
68 | RRIRDRPPRLPRPRPRPHVLPRP | 0.00542
69 | RRIRLRPPRLPRPRPRPVNCPRP | -0.0144
70 | RRIRLRPPRLPRPRPRPYYVPRP | -0.0539
71 | RRIRFRPPRLPRPRPRPVHAPRP | 0.184
72 | RRIRWRPPRLPRPRPRPVRVPRP | 0.214
73 | RRIRTRPPRLPRPRPRPPPWPRP | 0.614
74 | RRIRLRPPRLPRPRPRPKYAPRP | 0.0149
75 | RRIRVRPPRLPRPRPRPPNHPRP | -0.0404
